Experimental data published in article PMC7699638.

Biological target: MBP-ROCK2 (full-length ROCK2 with N-terminal MBP tag) (human), O75116
Assay: SAXS; MBP-ROCK2 alone; 25 mM HEPES pH 7.4, 25 °C, concentration series 0.3–1.1 mg/ml; molecular mass from the scattering extrapolated to zero angle
Details: remark: other sources report otherwise

stoichiometry N: 2
B1: MBP-ROCK2 (full-length ROCK2 with N-terminal MBP tag), O75116 1-1388 (enzyme)
chain: MSRPPPTGKMPGAPETAPGDGAGASRQRKLEALIRDPRSPINVESLLDGLNSLVLDLDFPALRKNKNIDNFLNRYEKIVKKIRGLQMKAEDYDVVKVIGRGAFGEVQLVRHKASQKVYAMKLLSKFEMIKRSDSAFFWEERDIMAFANSPWVVQLFYAFQDDRYLYMVMEYMPGGDLVNLMSNYDVPEKWAKFYTAEVVLALDAIHSMGLIHRDVKPDNMLLDKHGHLKLADFGTCMKMDETGMVHCDTAVGTPDYISPEVLKSQGGDGFYGRECDWWSVGVFLYEMLVGDTPFYADSLVGTYSKIMDHKNSLCFPEDAEISKHAKNLICAFLTDREVRLGRNGVEEIRQHPFFKNDQWHWDNIRETAAPVVPELSSDIDSSNFDDIEDDKGDVETFPIPKAFVGNQLPFIGFTYYRENLLLSDSPSCRETDSIQSRKNEESQEIQKKLYTLEEHLSNEMQAKEELEQKCKSVNTRLEKTAKELEEEITLRKSVESALRQLEREKALLQHKNAEYQRKADHEADKKRNLENDVNSLKDQLEDLKKRNQNSQISTEKVNQLQRQLDETNALLRTESDTAARLRKTQAESSKQIQQLESNNRDLQDKNCLLETAKLKLEKEFINLQSALESERRDRTHGSEIINDLQGRICGLEEDLKNGKILLAKVELEKRQLQERFTDLEKEKSNMEIDMTYQLKVIQQSLEQEEAEHKATKARLADKNKIYESIEEAKSEAMKEMEKKLLEERTLKQKVENLLLEAEKRCSLLDCDLKQSQQKINELLKQKDVLNEDVRNLTLKIEQETQKRCLTQNDLKMQTQQVNTLKMSEKQLKQENNHLMEMKMNLEKQNAELRKERQDADGQMKELQDQLEAEQYFSTLYKTQVRELKEECEEKTKLGKELQQKKQELQDERDSLAAQLEITLTKADSEQLARSIAEEQYSDLEKEKIMKELEIKEMMARHKQELTEKDATIASLEETNRTLTSDVANLANEKEELNNKLKDVQEQLSRLKDEEISAAAIKAQFEKQLLTERTLKTQAVNKLAEIMNRKEPVKRGNDTDVRRKEKENRKLHMELKSEREKLTQQMIKYQKELNEMQAQIAEESQIRIELQMTLDSKDSDIEQLRSQLQALHIGLDSSSIGSGPGDAEADDGFPESRLEGWLSLPVRNNTKKFGWVKKYVIVSSKKILFYDSEQDKEQSNPYMVLDIDKLFHVRPVTQTDVYRADAKEIPRIFQILYANEGESKKEQEFPVEPVGEKSNYICHKGHEFIPTLYHFPTNCEACMKPLWHMFKPPPALECRRCHIKCHKDHMDKKEEIIAPCKVYYDISTAKNLLLLANSTEEQQKWVSRLVKKIPKKPPAPDPFARSSPRTSMKIQQNQSIRRPSRQLAPNKPS
